The text below walks through data of the supplement of paper PMC9170038.

The data set concerns MS2 coat protein. Briefly: apparent KD of MS2 coat protein; designed switch direction (-1 OFF switch, 1 ON switch): 1; higher = weaker reporter binding. A digest of the protocol:
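Designed RNA switches with common flanks were made on Illumina chips by stalled E. coli RNA polymerase. Titration with SNAP-549-labelled MS2 coat protein doubled from 0.7 or 1.5 nM up to 3 µM. Apparent KD is each design's median over clusters after curve-fitting normalised fluorescence.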

Setting [1] is: input ligand: microRNA oligo, concentration not stated.
[2] abbreviates: Eterna round: R95, input ligand: FMN 200 uM.
[3] abbreviates: Eterna round: R95, input ligand: microRNA oligo, concentration not stated.
[4] abbreviates: Eterna round: R95, input ligand: none.

For the sequence “GUAACAUGACGAGGAUAUGGUACAUGAGGAUCACCCAUGUAUGUACCACGACGCGUACGUCGAAUCCAGAAGGCGUCGUGAAUG [Mat - Same State NG 2 - JL mod - D21] (Eterna round: R96, puzzle: Same State NG 2)”, the “apparent KD of MS2 coat protein” value reads like this: (input ligand: FMN 200 uM) 26.5 nM; under setting [1], 68.5 nM; (input ligand: none) 70.1 nM.
Regarding “GUACGUGCAACGUAGGAUAUCCACGACACGACAUGAGGAUCACCCAUGUCAAGGCUUAAAAGUCGGGAGAAGGGCGAACCACGGA [Xereenge] (puzzle: Same State 2)”, the “apparent KD of MS2 coat protein” value reads like this: under setting [2], 14.5 nM; under setting [3], 15.9 nM; under setting [4], 19.2 nM.
In the same order, the values of “GUAGAAGAACUAGAGGAUAUCCGAGUGGUAACAUGAGGAUCACCCAUGUGAUGAAAGGAACAUGAGGAGAAGGCUAGAAUGAAUG [Mat - Same State 2 - Mod of JL - D83] (puzzle: Same State 2)” are 24.7 nM, 45.7 nM and 79.2 nM.
Consider “GUAGAAUAACUAGAGGAUAUCCGAGUGGUAACAUGAGGAUCACCCAUGUGAUGAAAGGAACAUGAGGAGAAGGCUAGAAUGAAUG [Mat - Same State 2 - Mod of JL - D84] (puzzle: Same State 2)”, for which the “apparent KD of MS2 coat protein” value under setting [2] came to 23.4 nM, the “apparent KD of MS2 coat protein” value under setting [3] was 38.4 nM and the “apparent KD of MS2 coat protein” value under setting [4] was found to be 88.3 nM.
Take “GUAGAUGUAGAGGAGGAUAUUCAAUAGAGAACAUGAGGAUCACCCAUGUAAGAGAGAGAUGAUGGGAAGAAGGCUUAGAGAGAUG [Altered State 2-1 - Jieux - Same State 2] (puzzle: Same State 2)”: the “apparent KD of MS2 coat protein” value is 72.2 nM under setting [2], 76.6 nM under setting [3] and 94.8 nM under setting [4].
“GUAGCAUACCGAGGAUAUUCAUAUAAUACAUGAGGAUCACCCAUGUUAUAUAGGCGAAAGCCUUGGGAGAAGGCGGAAUGCUAC [Xeonanis - 20 Mod65] (Eterna round: R96, puzzle: Same State NG 2)”: the “apparent KD of MS2 coat protein” value under setting [1] turned out to be 10.9 nM.
Turning to “GUAGCAUACCGAGGAUAUUCAUAUUAAAUACAUGAGGAUCACCCAUGUAAGGCCAAAAGGCCUUGGGAGAAGGCGGAAUGCUAC [Xeonanis - 20 Mod3] (Eterna round: R96, puzzle: Same State NG 2)”, the “apparent KD of MS2 coat protein” value reads like this: (input ligand: FMN 200 uM) 20.7 nM; under setting [1], 32.5 nM; (input ligand: none) 67.3 nM.
In the same order, the values of “GUAGCAUACCGAGGAUAUUCAUAUUAAAUUACAUGAGGAUCACCCAUGUAGGCCAAAAGGCCUUGGGAGAAGGCGGAAUGCUAC [Xeonanis - 20 Mod1] (Eterna round: R96, puzzle: Same State NG 2)” are 18.8 nM, 89.3 nM and 102 nM.
For “GUAGCAUACCGAGGAUAUUCAUUACAUGAGGAUCACCCAUGUUAAUUAUAGGCCAAAAGGCCUUGGGAGAAGGCGGAAUGCUAC [Xeonanis - 20 Mod13] (Eterna round: R96, puzzle: Same State NG 2)”, in that order: 12.2 nM, 8.28 nM and 13.3 nM.
For the sequence “GUAGGACAUGAGGAUCACCCAUGUAGGAGGGAACGAGGAUAUGUGAUUAGCGAGGAGAGGACAGAAGGCGUGGUAG [JR_SS1_Sub025] (puzzle: Same State 1)”, the “apparent KD of MS2 coat protein” value under setting [2] was found to be 18.7 nM, the “apparent KD of MS2 coat protein” value under setting [3] was 18.3 nM and the “apparent KD of MS2 coat protein” value under setting [4] came to 21.3 nM.
With “GUAUAACAUGAGGAUCACCCAUGUCAUCUAAGUCGAGGAUAUGGGAAUUAAUUAAUUAAACCAGAAGGCGAAAAUG [Mat - Same State 1 - D93] (puzzle: Same State 1)”, the “apparent KD of MS2 coat protein” value by setting is: under setting [2], 48.2 nM; under setting [3], 291 nM; under setting [4], 300 nM.
In the same order, the values of “GUAUCUACAGGUUUCUUUGCUCGUCUGAUACAUGAGGAUCACCCAUGUUAUAGCCCUGUGCUUGCGCAGGGCUGAGG [Sensor for hsa-mir-208a ( MOD of Tearor v.3 )] (puzzle: Sensor for hsa-mir-208a)” are 34.1 nM, 36.6 nM and 37 nM.
Regarding “GUGACCUCCCUAGGAUAUCGCCAAAUGUGAUGUCGACAUGAGGAUCACCCAUGUAUAGUCACGAACGAGAAGGAGGGUGUGGCA [Cesodi] (Eterna round: R96, puzzle: Same State NG 2)”, the “apparent KD of MS2 coat protein” value is 15.6 nM (input ligand: FMN 200 uM), 17.5 nM under setting [1] and 19.4 nM (input ligand: none).
Consider “GUGCAACCGUGUGAGGAUAUCGGUGAACAAACAUGAGGAUCACCCAUGUCCGAAGCUCGGUUCUCCGAGAAGGCGCACAGUUGCA [Same State 2 - Mod of Erisin v.3] (puzzle: Same State 2)”, for which the “apparent KD of MS2 coat protein” value was determined as 72.6 nM under setting [2], 105 nM under setting [3] and 224 nM under setting [4].
In the same order, the values of “GUGCAACCGUGUGAGGAUAUCGGUGAUCAGACAUGAGGAUCACCCAUGUCCGAAGCUCGGAUCUCCGAGAAGGCGCACAGUUGCA [Same State 2 - Mod of Erisin v.6] (puzzle: Same State 2)” are 92.8 nM, 232 nM and 296 nM.
For “GUGCGGGUGCCACAGGAUAUACGUGGAUCGACAUGAGGAUCACCCAUGUAUAUCCUAAUAAUUGCGUAGAAGGGUGGUCAGCCGU [Enbebiqu] (Eterna round: R96, puzzle: Same State 2)”, the “apparent KD of MS2 coat protein” value runs as follows: (input ligand: FMN 200 uM) 144 nM; under setting [1], 196 nM.
For “GUGCGGGUGCCACAGGAUAUACGUGGAUCGACAUGAGGAUCACCCAUGUAUAUCCUAAUAAUUGCGUAGAAGGGUGGUCAGCCGU [Enbebiqu] (puzzle: Same State 2)”, the “apparent KD of MS2 coat protein” value turned out to be 85.9 nM under setting [2], 308 nM under setting [3] and 340 nM under setting [4].
On to “GUGCUCGUGUAAGGAUAUGCUUCCGUUUCGGCUGCAGAAGGUACUAUUAUACAUGAGGAUCACCCAUGUCUCUUUUGUUUGGUG [salish99_SSNG1_r04_909] (Eterna round: R96, puzzle: Same State NG 1)”, for which the “apparent KD of MS2 coat protein” value turned out to be 89.1 nM (input ligand: FMN 200 uM), 55.5 nM under setting [1] and 87.9 nM (input ligand: none).
In the same order, the values of “GUGCUCGUGUGAGGAUAUGCUUCCGGUUCGGCUGCAGAAGGUACUAUUAUACAUGAGGAUCACCCAUGUCGCUUUUCUCCGGUG [salish99_SSNG1_r04_916] (Eterna round: R96, puzzle: Same State NG 1)” are 28.3 nM, 17.6 nM and 25 nM.
With “GUGCUCGUGUGAGGAUAUGCUUCCGUUUCGGCUGCAGAAGGUACUAUUAUACAUGAGGAUCACCCAUGUCGCUUUUCUCCGGUG [salish99_SSNG1_r04_915] (Eterna round: R96, puzzle: Same State NG 1)”, the “apparent KD of MS2 coat protein” value under setting [1] is 21.8 nM.
Turning to “GUGGCCUAGGCACAGGAUAUGUUGCUCGUAACAUGAGGAUCACCCAUGUGCCUAUGAGAUUUAAUGCAGAAGGGUGCACGCCACG [Edbeso] (Eterna round: R96, puzzle: Same State 2)”, the “apparent KD of MS2 coat protein” value (input ligand: FMN 200 uM) stood at 14.3 nM, the “apparent KD of MS2 coat protein” value under setting [1] was determined as 123 nM and the “apparent KD of MS2 coat protein” value (input ligand: none) was 139 nM.
Turning to “GUGGUCAGACAUGAGGAUCACCCAUGUGGAAUAAAUAACACACAGGAUAUCAAAUAUAAAAUAUAUGAGAAGGGUGGAUUGGUG (Eterna round: R96, puzzle: Same State NG 3)”, under setting [1], the “apparent KD of MS2 coat protein” value came to 300 nM.
As to “GUGGUCAGACAUGAGGAUCACCCAUGUGGAAUAAAUAACGGACAGGAUAUUUAAUAUAGGAUAUAGAAGAAGGGUUGAUUGGUG (Eterna round: R96, puzzle: Same State NG 3)”, the “apparent KD of MS2 coat protein” value amounted to 104 nM (input ligand: FMN 200 uM), 77.9 nM under setting [1] and 90.8 nM (input ligand: none).
For “GUGGUCAGACAUGAGGAUCACCCAUGUGGAAUAAAUAACGGUGAGGAUAUGGAAUAUAGGAUAUACUAGAAGGCAUGAUUGGUG (Eterna round: R96, puzzle: Same State NG 3)”, in that order: 91.5 nM, 76.9 nM and 92.3 nM.
In the same order, the values of “GUGGUCAGACAUGAGGAUCACCCAUGUGGAAUAAAUAAGGGAGAGGAUAUUUAAUAUAGGAUAUAAAAGAAGGCUCGGUUGGUG (Eterna round: R96, puzzle: Same State NG 3)” are 86.3 nM, 113 nM and 115 nM.
On to “GUUAAACAUGAGGAUCACCCAUGUAAUAUAAUGGGAGGAUAUCUGAAUUAAUUAAAUUAAGGAGAAGGCCUAUAUG [Mat - Same State 1 - Mod of Eli - D53] (puzzle: Same State 1)”, for which the “apparent KD of MS2 coat protein” value turned out to be 36.6 nM under setting [2], 210 nM under setting [3] and 271 nM under setting [4].
“GUUAAGAACUAAGGAUAUUGAAUACAUAUGUUUAACAUGAGGAUCACCCAUGUGGGUUGCGGUGUCGAGAAGGUAGAAUAAUAG [Mat - same State NG 2 - JL mod - D98] (Eterna round: R96, puzzle: Same State NG 2)”: the “apparent KD of MS2 coat protein” value under setting [1] worked out at 148 nM.
Take “GUUACAUGAGGAUCACCCAUGUAUGUGUGGGAGUAAGUGUCUUAGGAUAUCUAAUAUUUAAAUUAAGAGAAGGAAGAUUGUUGU [JMF's solution 6] (Eterna round: R96, puzzle: Same State NG 3)”: the “apparent KD of MS2 coat protein” value was found to be 112 nM (input ligand: FMN 200 uM), 89.9 nM under setting [1] and 112 nM (input ligand: none).
